# Experimental data taken from the nanobody polyreactivity screen of Harvey et al. (2022).
# Test: yeast display, Sf9 membrane polyspecificity reagent, FACS + sequencing; frameworks hold sequencing errors
# Method in brief: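 A nanobody's polyreactivity label depends on the gate it was sorted from. Yeast display cells were stained with 10% biotinylated, detergent-solubilized Sf9 membrane reagent for 1 hour at 4 °C, enriched on streptavidin microbeads and sorted by FACS. The low and high (top ~1%) gates were set on anti-HA fluorescence for expression and streptavidin fluorescence for reagent binding.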
row,Sequence,polyreactivity (PSR sort gate)
1,QVPLVESGGGLVQAGGSLRLSCAASGSICWSYAMGWYRQAPGTERELVASITRSGGSTYYADSVKGRFTISRDYAKNSLYLQLNSLKPEETAVYYCNARRTTRWGSSKYEYDYWGQATQVTVSS,high polyreactivity
2,QVPLVESGGGLVQAGGSLRLSCAASGSIFRNYALGWYRQAPGKERELVAGITQRGGRTYYADSVKGRFTSSRDNAKNTVYLQLNSLKPEDTAVYYCAASYRGVPEYDSWGQGTQVTVSS,high polyreactivity
3,QVPLVESGGGLVQSGGSLRISCAASGSIFAPNAMGWYRQAPGKERELVAAITSGGSTDYADYVKGRFTISRDNAKNTVYLQMNRLKPEDTAVYFCAKGYVPYAIFDYWGQATQVTVSS,low polyreactivity
4,QVQDVESGGGLVQAGGSLRLSCAASGRTIDPNAMGWYRQAPGKERELVAAITRTGVRTYYADSVKGRFTISRDNAKNTVYLQMNSLKPEDTAVYYCNRYGARSNDYWGQATQVTVSS,low polyreactivity
5,QVQFVESGGGLVKAGGSLRLSCAASGYTFGRYAMGWYRQAPGKERELVAAITKSGGPTSYADSVKGRFTISRDNAKNTVYLQMNSLKPEDTAVYYCNKVLFQPYWVVYATGDYWGQGTQVTVSS,high polyreactivity
6,QVQGVESGGGLVQAGGSLRLSCAAAGFTFGYYAMGWYRQAPGTERELVAGISWGGTRTYYADSVKGRFTISRDNAKNTVYLQLNSLKPEDTAVYYCAAESILGYDYWGQGTQVTVSS,high polyreactivity
7,QVQHDESGGCLVQAGGSLRLSCAASGITFILYDMGWYREAPGKVRELVASITSGGSTDYADSVKGRFTISRDNAKNTVYLQMNSLKPEDTAVYYCAARYVYPYWYGDYYWGQGTQVTVSS,low polyreactivity
8,QVQHEESAGGLVQAGGSLRLSCAASGSTIHPYSMGWSRQAPGKERELVAAITWGGGSTYYADSVKGRFTISRDNAKNTVYLQMNSLKPEDTAVYYCNSYTLYWPDYDYWGQGTQVTVSS,low polyreactivity
9,QVQHEESAGGLVQAGGSLRVSCAASGIIFYDYAMGWYRQAAGKERELVAAITSVGSTNYADSVKGRFTISRDYAKNTVYLQMISLKPDDTAVYYCDAEVYVPDYFQHIFDVEYEYWGQGTQVTVSS,low polyreactivity
10,QVQHEESGGGLVQAGGRLRLSCAASGRTFFSNAMGWYRQAPGKERELVAAISNGDNTYYADSVKGRFTISRDNAKNTVYLQMNSLKPEDTAVYYCATAYPEWAVWGYDYWGQGTQVTVSS,low polyreactivity
11,QVQHEESGGGLVQAGGSLRLSCAASGITINFYDMGRYRQARGKERELGAAITASGGGSTYYADSVKGRFTISRDNAKNTVYLQMNSLKPEYTAVYYCNADSTGSFYTFDYWGQGTQVTVSS,low polyreactivity
12,QVQHVASGGGLVQAGGSLRLSCAASGNIFRYYTMGWYRQAPGKERELVATISYADSVKGRFTISRDNAKNTVYLQMNSLKPEDTAVYYWNAVFAPWDKQDYPYDYDYWGQGTQVTVSS,low polyreactivity
13,QVQHVDSAGGLVQAGGSLRLSCAASGSTFAPNAMGWYRQAPGKERELVAAISFRGVRTYYADSVKGRFTISRDNAKNTVYLQMNCLKPEDTAVYYCNKRVQRRNKPGAYNYEYWGQGTQVTVSS,high polyreactivity
14,QVQHVDSGGGLVQAAGSLRLSCAASGRTFGVYAMGWYRQAPGKERELVATITSVDRTNYADSVKGRFTISRENAKNTVYLLMNSLKPDDTAVYYCADVGRGPRYFYWGQGTQVTVSS,high polyreactivity
15,QVQHVDSGGGLVQTGGSLLLSCAAYGRTFCVNDMGWYRQAAGKEREFVAAITWRGDSTYYADSVKGRFTISRDNAKNTVYLQMNSLKPEDSAVYYCNADVISLYDHPDYLYLFDYWGQGTQVTVSS,low polyreactivity
16,QVQHVDSVGGLVQAGRSLRLICAASGSTFTSYTKGWYRQAPLKERELVDRITRGGGSTYYADSVKGRFTISRDNAKNTVYLQMNSLKQEDTAVYYCAKHVVGSAYYSWGQGTQVTVSS,low polyreactivity
17,QVQHVESAAGLVQAGGSLRLSCDPSGIIFGRYAMGLYRHAPGKEREFVAAITWSGGSTYYADSVKGRFTISRDNAKNTVYLQMNSLKPEDTAVYYCAADTWYRYDYWGQGTQVTVSS,low polyreactivity
18,QVQHVESGAGLVQAGGSLRLSCAASGIILLENAIGCYRQQPGKERELVSGISSGGNTNYADSVKGRFTISRDNAKNTVYLQINSLKPEDTAVYYCNTDWYLPRYVLPGYFSGTEDYWGKGTQVTVSS,low polyreactivity
19,QVQHVESGGALVQAGGSLRLSCAASGITFDYYVMGWYRTAPGKERELVAGISSGGSTYYADSVKGRFTISRDNAKNTVYLQMNSLKPEDTAVYYCNARRRRLVSVGYYYNYDYWGQGTQVTVSS,high polyreactivity
20,QVQHVESGGCLVQAGASLRLSCDASGSIFRRNAMGWYRQAPGKERQLVDAITSYGGRTYYADSVKGRFTISRDNAKNTVYFQMNSLKPVDTAVYYCASRYPWGWAMNYWGQGTQVTVSS,high polyreactivity
21,QVQHVESGGGIVQAGGSLRLICAASGFPYARYAMGWNRQAPGNERELVAAITSAGSTSYADSVKGRFTISRYNAKNTDYFHMNSLKPEDTAVYYCAAVQYNQAYHYWGQGTQVTVSS,high polyreactivity

row,Sequence,polyreactivity (PSR sort gate)
1,QVQHVESGGGIVQAGGSLRLSCAASGITFDEYAMGWYRQAPGKEWELVATITWSGGSTYYADSVKGRFTISRVNAKNTVDLKMNSLKPEDSAVYYCAARDSGRYDDFGYWGQGTQVTVSS,low polyreactivity
2,QVQHVESGGGIVQAGGSLRLSCAASGSIFRNNTMGWYRQAPGKERELVAAISGRGTRTSYADSVKGRFTISRDNAKNTVYLQMNSLKPEDTAVYYCAARSWYLYYWGQGTQVTVSS,low polyreactivity
3,QVQHVESGGGIVQAGGSLRLSCAASGSTIVDNYMGWYRQAPGKERELVAVINSGGSTYYADSVKGRFTISRDNAKNTGYLQMNSLKPEDTAVYYCAADDIPYGSVYTSIGLDYWGQGTQVTVSS,low polyreactivity
4,QVQHVESGGGIVQAGGSLRLSCSASGSTFFYNTMGWYRHAPGKERELVAAISYRTGSTYYADSVKGRFTISRDNAKNSVYLQMNSLKTEDTAVYYCNARYPYRYGYWGQGTQVTVSS,high polyreactivity
5,QVQHVESGGGLFQAGGSHRLSCAASGRTFSKNAMGWYRQAPGKERELVAAINRGGTTKYADSVKGRFTISRDNAKNTVYLQMNSQKPEDTTVYYCAVDRQRAGYPKQYDSWGQGTQVTVSS,low polyreactivity
6,QVQHVESGGGLGQAGGILRLSCAGCGRTFVRYAMGWYRQAPGNERELVAAITRSASTYYADSVKGRFTISRDNAKKTVDLQMTSLKPEDTSVYYCNAVWSRYRDLDFWGQGTQVTVSS,high polyreactivity
7,QVQHVESGGGLVQAGASLRLSCAASGFTIRSYVRGWYRQAPGKEREIVAAISYRGGGTNYADSVKGRFTISRDNAKNTVYLHMNSLKPEDTAVYYCNARSGSSKSGYYYWGQGTQVTVSS,high polyreactivity
8,QVQHVESGGGLVQAGASLRLSCAASGLTFRSNAMGWYSQAPGKERELVAAISSSGGSTYYADSVKGRFTISRDNAQNTVYLQMNSLKPEDTAVYYCAAEDPGDQYDYWGQGTQVTVSS,high polyreactivity
9,QVQHVESGGGLVQAGGILRLICPDSGFTIRHKAMGWYRQAPGKEREFVAAISWYDGSTYADSVKGRFTISRDNAKYTVYIQLNCLKPEDTAVYFCNADYPSYRYFTGRHYWGQGTQVTVSS,low polyreactivity
10,QVQHVESGGGLVQAGGRLRLSCAASGSIFAWYARGWYIQAPGKEREVVADITHSGGSTYYADSLKGRFTISRDNAKNTVYLQMYSLKPEDTAVSYCVDYWYNDLQSGWEDDYWGQGTQVTVAS,low polyreactivity
11,QVQHVESGGGLVQAGGRLRLSCAASGSTFDYYVMGWYRQAPGKEREMVAAISQNAGSTYYADSVKGRFTISRDNAKNTVYLQMNSLKPEDTAVYYCAAPDYRNGVRYPLDYWGQGTQVTVSS,low polyreactivity
12,QVQHVESGGGLVQAGGSHRLSCAASGSTFTYYAMGWYRQAPGKERELVAAISRGGSTYYADSVKGRFTISRDNAKNTVYLKKYSLKPEDTAVYYCAAERGYKKWSRGYWGQGTLVTVSS,high polyreactivity
13,QVQHVESGGGLVQAGGSLLLSCAASGSIFEINAMGWYRQAPGKERELVADIRRGDSTNYADSVKGRFTNSRDNAKNTVYLQMNSLKPEDTAVYYCAARWRRSKYGVYPQRPYDYWGQGTQVTVSS,high polyreactivity
14,QVQHVESGGGLVQAGGSLLLSCAASGSTFGFYTMGWYRQAPGKERELVAAISWSTGRTYYADSVKGRFTISRDNAKNTVYLQMNSLKPEDTAVYYCNADGYPEQVYYYSAFQGMDYWGQGTQVTVSS,low polyreactivity
15,QVQHVESGGGLVQAGGSLRISCAASGFISTGNAMGWSRQAPGKERELVAAITTGGSTYYADSVKGRFTISRDNAKNTVYLQMNSLKPEDTAVYYCNAVYVWWDGWGLYYWGQGTQGTVSS,low polyreactivity
16,QVQHVESGGGLVQAGGSLRLICAASGYIFRGYVMGWYRQAPGKERELVAAITSRGDSTYYADSVKGRFTISRDNAKNTVYLPMNSLKPEDTAVYYCAARGGVLKGYYYWGQGTQVTVSS,high polyreactivity
17,QVQHVESGGGLVQAGGSLRLRCAASGSIFYRYVMGWYRQAHGKERELVAAISVSGGTTYYADSVKGRITISRDNAKNTVYLQMNRLKPEDTAVYYCAAEDSLTEDPAHDYWGQGTQVTVSS,low polyreactivity
18,QVQHVESGGGLVQAGGSLRLSCAASGFIFAANAMGWYRQGPGKERELVAAINYRGSSTYYADSVKGRFTISRDNAKNTVNLQMNSLKPEDTAVYYCAARSGAQRGGGYWGQGTQVTVSS,high polyreactivity
19,QVQHVESGGGLVQAGGSLRLSCAASGFIFPYYAMGWYRQAPGKERELVAAINSGTSTYYADSVKGRFTISRDNAKNTVYLQMNSLKPEDTAVYYCAAAYPLWYEYDYWGQGTQVTVSS,low polyreactivity
20,QVQHVESGGGLVQAGGSLRLSCAASGFIFRSYAMGWFRQAPGKERELVAAISNGVITNYADSVKGRFTISRDNSKNTVYLQRNSLKPEDTAVYYCDADYNSQDDYWGQGTQVTVSS,low polyreactivity
